Measurements: WO2012028683A1 (dated 2012)

Target: T1, recombinant human SOST (human, UniProt Q9BQB4 24-213, labeled with Cy5 (site not stated))
T1 construct: Acceptor-labelled partner in the FRET assay; also called sclerostin; Cy5-SOST
T1 sequence (looked up): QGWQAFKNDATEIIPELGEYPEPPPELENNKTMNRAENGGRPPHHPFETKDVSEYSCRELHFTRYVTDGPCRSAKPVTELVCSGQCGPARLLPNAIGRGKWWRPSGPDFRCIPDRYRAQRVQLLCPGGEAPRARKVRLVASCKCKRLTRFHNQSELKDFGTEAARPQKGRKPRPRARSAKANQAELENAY
Assay: FRET competition assay (inhibition of SOST binding to LRP6(Fc)), antibody released from the PBS gel

binding result: binds
B1: ANTIBODY 1 (antibody, human IgG2, lambda, V domains shown)
VH: QVQLVESGGGLVQPGGSLRLSCAASGFTFRSHWLSWVRQAPGKGLEWVSNINYDGSSTYYADSVKGRFTISRDNSKNTLYLQMNSLRAEDTAVYYCARDTYLHFDYWGQGTLVTVSS
VL: DIALTQPASVSGSPGQSITISCTGTSSDVGDINDVSWYQQHPGKAPKLMIYDVNNRPSGVSNRFSGSKSGNTASLTISGLQAEDEADYYCQSYAGSYLSEVFGGGTKLTVLG
notes: also called anti-sclerostin antibody; mAb
